The source of these data is a protein production outcome set (Wang et al. 2014).

The data set can be described thus: label from the status in PepcDB records.
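Also: failed if final PepcDB status was selected cloned or expressed and not failed if soluble or beyond.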

For “MTTYTSIANVIKERRSVRTFTDKAVEKDLLIELLNDATWAPNHKHREPWNCKLYIGEGRKKLVDAVLNSFTEEERAKRGKILSDRFLSTPAQIVVYMNEDPRQIQRDEDYAATCAFMQNFQLLAWERGLGCVWKSGGLNYNPLFIEGIGLTRGQRIVGILHIGYFDKAPEGKARTPITEKMEIIEG”, the protein production result is reported as “not failed”.

Take “MTVEEAIALVEQLLSGTRLTKVQEIVFRQCWAGQTYSDIALESDYDLGYIKDVGSELWRSLSQALGEKVTKKNLYTVLKRAAKQNSINPSSSLQLPSLANYTDWGEAIDVSQFYGRTHDLATLSRWVLQDNCRVVSLLGMGGIGKTALSVKLAQQLQGQFEYVIWRSLRHAPSFSDKLTECIKILSNQQVTTLPASSHEQITYLIEYLRKSRCLLILDNFDTLLQDGKRAGSYRQGYEPYGELLWRLGETQHQSCVLITSREKPAQIAALEGDGLPVRTLALSGLEVAAGQTILTLKGLSGSEDQTRQLVECYGGNPLALKIAATSIRDLHEGSIANFLSEGTTVFQGIGHLLEDQFQRLSTLEQQLMYWLAINREKVSSTKLQTAFTSPLSKPKLIETLESLRWRSLIESNTGQFTQQPVVMEYVTDSLVEQVCQEIITESPQYLLTHALMQVQAKDYIRDSQINLIVCPILKQLQITLGSVHQLDLKLGRLIRKLQSKVIETVGYGGGNLLNLLAQLDTDLTGYDFSGLDMRECDLRTVNLHAVNFTQTTFRDCVFAATFGGITSVAFSRDGCQLATSDTSGVINIWDVNNGKQLFNCQEHNSWIWDVAFSSVAPVLASCGQDHTIKLWNTTTGECFNTLHGHTSIVTSVAFSPEGKLLASSSYDHSVKVWDLDTGECLQTFLGHDACVWSVVFHPVGQILATAGEDNTIKLWELQSGCCLKTLQGHQHWVKTIAFNSGGRILASGSFDQNVKLWDIHTGKCVMTLQGHTGVVTSVAFNPKDNLLLSGSYDQSVKVWDRKTGRCLDTLKKHTNRIWSVAFHPQGHLFVSGGDDHAAKIWELGTGQCIKTFQGHSNATYTIAHNWEHSLLASGHEDQTIKLWDLNLHSPHKSNVNTHPFRILQGHSNRVFSVVFSSTGQLLASGSADRTIKLWSPHTGQCLHTLHGHGSWVWAIAFSLDDKLLASGSYDHTVKIWDVSSGQCLQTLQGHPGSVLAVAFSCDGKTLFSSGYEKLVKQWDVETGYCLQTWEADSNRVWAVAVSRDNQYLATGGDDSVVRLWDIGKGVCVRTFSGHTSQVICILFTKDGRRMISSSSDRTIKIWNVSTGECLATLQAHDHWVWSLYLTPDEKTLLSSSWDETIKCWNISTGECWQTLRPARPYEGMIINEVVGLSQAQIATLKALGALEVN”: the protein production entry is given as “failed”. Turning to “MTVGTYAELASVFAALSDETRWEILTELGRADQSASSLATRLPVSRQAIAKHLNALQACGLVESVKVGREIRYRALGAELNKTARTLERIGAEWDRRLAAIKQIAESMEE”, the protein production entry is “not failed”. For the sequence “MTVLRKQAREAGVYMKVVRNTLARRAVEGTEYECLTDTFTGPSLLAFSNEHPGAAARLFKDFAKENKDFEIKAAAFEGAVTDADVLATLPTYDEAIARLMMCMKEASAGKLVRTIAAVRDQKEEAAA”, the protein production result is on record as “failed”. On to “MTVQTAIFDLIKQAKTIIIHRHQRPDPDAIGSQLGLAAIIKASFPAKRVLTPGKQYHGFDWLGQMDEVTEADYQDALVLILDTANQPRIDGELWNQGKTIVKIDHHPNDDAFGDPQWVDVDASSTSEMIYNWYAPLAAELTLTANAARLLYAGIVGDTGRFLYSATKPSTMRAAAALMEAGADAEAVNRIEDTITLPVARLSAYVYEHLTQLDSGAAYVILTNAILDSFAIGDASTAGVVPLPGRIDTVKCWAIFVQQKEGDFRIRLRSKGPSINGVAKNHDGGGHALASGAKAKDQQEIETVVRELDQVASQYEKEVLEHHHHHH”, for which the protein production result was “failed”. Turning to “MTVRLTFMCATAGGTTRDAVFGDGLLSERGLRRARAAGATLPPYSLAIRAPSVRCAQTAYALGLPTTLEPALRDLDYGTWRGRTVGEVVADEPYGYSAWLTDPDAAPHGGESVRRLCRRIANWLSSVPPYPGRALVITEPSVVRASLVHALSAPVTAFRHFDVPPLSTVSLTLSDGHWIVRPGRVTPDRVGTSRAVPTPYDAAEGRTALLWGEATPA”, the protein production result is on record as “failed”.

In the case of “MTVRSRFFTEAEGKAVGVENAAAKGDVLLVCEHASATIPQKYGTLGLSADVLSSHAAWDPGALAVARLLSEKFHATLVYQRFSRLVYDCNRPPESPSAMPVKSEIYDIPGNFDLDEAERFARTSALYVPFHDRVSEIIAERQAAGRKVVVVTIHSFTPVYHGRFREVEIGILHDNDSRLADAMLAGAEGASLTVRRNDPYGPEDGVTHTLRLHALPDGLLNVMIEIRNDLIANEGEQAAIAGFLHELMGKALSSIEE”, the protein production result is “not failed”. In the case of “MTVSDPAGPRCFCRDCLVDLDMGVRRCSACGSPRLVRHRALSSLTIAHIDCDAFYATVEKRDNPDIADKPVIIGGGKRGVVSAACYIARTYGVRSAMPMFKALDACPHAIVIRPDMAKYVRVGREVRQAMQALTPLVEPLSIDEAFLDLSGTERVHGMIPAKVLARFARNIERDIGISVSVGLSCNKFLAKIASDLDKPRGFAALDQEEARLMLASRPVGFIFGVGPATQERLVQRGFRIIADLQKADEIEMMRQFPSDGRRLWRLARGIDDRRVEPDRGAKTISSETTFETDIRDFATLEKILWRLCEKTSSRLKSSELAGSTVTLKLKTADFRQRTRSQSIAAPTQLAAKIFSICREMLAKEIDGTAFRLMGAGVSALREGSPADDTDMLDRRAAHAERAVDSLRKKFGNSAVIRGIAYDGPETGQQE”, the protein production entry is on record as “failed”. As to “MTVSQDILLTDHFKQWIEIFKKGKVSDGTYRKYLYTLSVLKKHFSTATIKTMNRVKYQEMLNEFAEGHSDSSVKQINVHVRASLENLLDDFIIKNDFTKGAISLEHHHHHH”, the protein production entry was “not failed”. Regarding “MTVTSPRIATILLLIVCFIWGVEFVPIDLAIEVMPTNTFNAIRFAVATLSMLPLLWFVQKKNKGNSKPIDYVLLIRSGMLLGFFLFIGFYTQTEGMRFTTVTNAGFITGLCVPLVPVLGFLIFRNVVPKSVWIGVVTATAGLYMLTIGDKLVFNKGDILVLICAFGFAGHIIMTDRFVDNLPIIPLSIVQIFAVSIYSTIAIFIGPDPVFYYQDAEPVSWYQQLFTPLMIFAILVSGILGTAYAFWAQSVSQTLLKPHKVALIFAAEPVFACIAAWVFLDEVLGEKGMIGAGLILAGMLVSELGDRKKQPELRALDQTAALK”, the protein production entry is on record as “failed”. With “MTWLFCDRIATKIDKNNGISMITHNFNTLDLLTSPVWIVSPFEEQLIYANSAARLLMQDLTFSQLRTGPYSVSSQKELPKYLSDLQNQHDIIEILTVQRKEEETALSCRLVLRKLTEAEPVIIFEGIEAPATLGLKASRSANYQRKKQGFYARFFLTNSAPMLLIDPSRDGQIVDANLAALNFYGYNHETMCQKHTWEINMLGRRVMPIMHEISHLPGGHKPLNFVHKLADGSTRHVQTYAGPIEIYGDKLMLCIVHDITEQKRLEEQLEHAAHHDAMTGLLNRRQFYHITEPGQMQHLAIAQDYSLLLIDTDRFKHINDLYGHSKGDEVLCALARTLESCARKGDLVFRWGGEEFVLLLPRTPLDTALSLAETIRVSVAKVSISSLPRFTVSIGVAHHEGNESIDELFKRVDDALYRAKNDGRNRVLAA”, the protein production result is recorded as “failed”. The same measure for “MTWSFTLGRLFGSELKVHVTFFLLIGWIGVSAYQMGGWPSAVENTAFVLALFACVVAHEYGHALTARRYGIRTPDITLLPIGGLARLDRMPEKPGQEIVVALAGPAVNVAIWAALTLVGVDTRFETLAAIDSAEPDFLGRLAMVNLFLAVFNLIPAFPMDGGRVLRAALSLTMDRVRATRIAAAAGQLVALLFGFAGLSGGNPVLVLIAVFVFIAANAEAQDVAMRAVTRRLLARDAMITRFEALGPTDTLATAAQAVLHTTQHEFPVLDGEGHLLGFVTRARLFAALAADHPRSDPAETVMDREIPQVPLASGLETVLDALYQGAPAVAVTSADGRMLGYVTRENVGELMVIQGR”: “failed”. For the sequence “MTYKSLPVAEKIQSYWNRRARLVIVTSFTILCAAATIYFHMILGVEIVFTHLFYIPMVFAAVWFGRRSFIVTAFLGTVLLVTHALASLGGFQDDVMRLSVMFFVNAITVILSESIGESEEALAESEEKYRTIVESARDAIITVDGNGSIVSWNSAAEKIFGYRAAEMMGRHIDTIITEENLEKHDFNRIIDREISIMVTDVEGVRKDGTRVPLEISVFSWNYMDEKFITAVIRDVTERKMAENALIESERKFRAVFDGVEDIITIVEIRENGLPGKYIEVNRAAVEKLGYSRDELLRMTPADMGVSREQSYDIIKNLLRSGKVTFNRTYISRDGRRIPVEVNSRLLELGEMKVAVSVARDITQRLENERRLRESEEKYRSLFDLSPEYILLLDPEDGRILDVNSTLAGTLGIPSEELRGRSIYELEFLSDDVKTEFRSKIEVIERDGTLEPYEMVLTDPYGREYTVRIYNKLIHAEGRECLLIVLNDISDLKRTQSMLEKSLAEKELLLKEIHHRVKNNLMIISSLLSLQSRQAKDRETMDLFRESENRTRSMVLIHERLYRSEDLKNIDLAEYLGRLASEIFRSYSADSRIRLKLEIDELKVDVETAVPLGLIVNELLTNAVKHAFPDGEGTVTVSLRKRNGTVTLEVSDDGAGFPEDIDWESSPSLGLQLVRKPH”, the protein production result is listed as “failed”. On to “MVAAIIAGAAVAAAAYAGKYGIEAWQAFKLRPVRPRMRKFYEGGFQATMNRREAALILGVRESVAAEKVKEAHRRVMVANHPDAGGSHYLASKINEAKDMMLGKTKNSGSAF”, for which the protein production result is “failed”. Under “MVADSFVYSFVSSPDLSVLVLLCVLLLTALRQVGSLRLQIWQVMTLGAFSVLLLGEISPQEALRAINIDVLLFLFGAFCVGEALNRSGYLAWIGGRIVSRAKNTDQLVLLVIFSTGLLSAVLMNDTLAIMGTPLVLRFSRKYGVSPKLMLFALAFGITTGSVMSPIGNPQNLLIAIDGNLDSPFVVFLSSLAVPTMINLVLVYAVLKLFFSREFGKPALIHTEELISDPELAEISKKALFLLLALITCKILLVEFLPAWDFSLSWIALFSASPILLSKRRTEVVKNIDWATLVFFVSMFVLMESVWISGTCQGLLYRMSPQLGSVPTILALSIGLSQLISNVPFVALYLPAMGSGVSQGQLMALAAGSTIAGNLLILGAASNVIILQNAEKEGETFSFMEFAKIGLLISFLNAIIYFIFL” stands “failed”. With “MVARDTTAPQVKIVNPVTGNVSGSNVPISVNASDDSGASGITYALYIDGVLKATGKGSTLGYNWNIRNVAAGAHTVQVVAKDAAGNSASSSVSVTVVKLEHHHHHH”, the protein production entry was “failed”. The same measure for “MVCFASLFEEVSMHTCPLCHNQHTRHYFEDKHREYLQCEQCYLVFVNPDQRLDAETEKAHYDLHENNPEDIGYRRFLSRIADPITERISPQSNGIDFGCGPGPTLSLMLEEAGHNMALYDIYYHPDTAVLEKQYDFMTATEVIEHLYHPDVVWKQWLNLVKPGGWIGLMTKMVIDVEAFKSWHYKNDPTHVVFFSRDTFQFLAERDKLELEFIGNDVILLRKTQLEHHHHHH”: “not failed”; for “MVDQNPEEYYSKGILQYDDGNYTESIDLFEKAIQLNPEESKYWLMKGKALYNLERYEEAVDCYNYVINVIEDEYNKDVWAAKADALRHIEGKEVEAEIAEARAKLEHHHHHH”: “not failed”; for “MVDYKTVRCHFGDVELTKWITITDGFTVFSGADYDPELKEIGGKDGSIFIGTKTKHKVIKVPFWVKYNTIEDYDALQLALSSKKPKMLMFSHIPGRYYLAVQVGDLNFKEIKMNGFGEITFIVADAYAHSTSYRRIKDYTQDGNKMTFKIKNNGTAPAFPIFRIKHLGENGYIGITNETGAFAVGSPEEEDGTIVHRNETLFDYSKAIAQALEGAPNVAKLNYMPPTFDSELKRMRLDNILGSGKGGEYVAIGARGTTPGYGEHVGTRTFIINPDSNGEYTLNEHLWWKQIFIATAQDQKGFLKLCVTGENDEFLYGIETYKRKNGFETEYNFFALDDDGVGWRFYKQFEFQADRNYHNPFSMNRSRAVEIFREEDKFRIYFNGAHHHVTVPSLKGKKSRKIHLAMGTCSDSSKYINYNLFEKVNFEKMGVSHYNNIVNKYQPGDEVIINFENDTVSTKDIDSIQDVVLGSKMISIPPGESELVVHLSSWVAALPDISIDFEERYK”: “failed”.
